{"source": "patent US7323168B2", "about": "“Immunotherapy for chronic myelocytic leukemia” (Immunomedics, Inc., priority 2000, dated 2008)", "origin": "cited, not measured here", "molecules": {"B1": {"name": "recombinant IL-12: recombinant interleukin-12 (protein, UniProt P29459 23-219; P29460 23-328, looked up)", "Interleukin-12 subunit alpha": "RNLPVATPDPGMFPCLHHSQNLLRAVSNMLQKARQTLEFYPCTSEEIDHEDITKDKTSTVEACLPLELTKNESCLNSRETSFITNGSCLASRKTSFMMALCLSSIYEDLKMYQVEFKTMNAKLLMDPKRQIFLDQNMLAVIDELMQALNFNSETVPQKSSLEEPDFYKTKIKLCILLHAFRIRAVTIDRVMSYLNAS", "Interleukin-12 subunit beta": "IWELKKDVYVVELDWYPDAPGEMVVLTCDTPEEDGITWTLDQSSEVLGSGKTLTIQVKEFGDAGQYTCHKGGEVLSHSLLLLHKKEDGIWSTDILKDQKEPKNKTFLRCEAKNYSGRFTCWWLTTISTDLTFSVKSSRGSSDPQGVTCGAATLSAERVRGDNKEYEYSVECQEDSACPAAEESLPIEVMVDAVHKLKYENYTSSFFIRDIIKPDPPKNLQLKPLKNSRQVEVSWEYPDTWSTPHSYFSLTFCVQVQGKSKREKKDRVFTDKTSATVICRKNASISVRAQDRYYSSSWSEWASVPCS"}}, "test_system": "IFN-γ levels", "conditions": "single intravenous dose 42.5 μg/kilogram, rhesus monkeys"}
{"molecule": "B1", "values": [{"measurement": "IFN-γ levels", "result": "elevated"}]}
